One block for each substance: values may come before it.
Tests used:
[1] = biological target: wild-type (polymerization-competent) yeast αβ-tubulin (yeast) (UniProt P09733); experiment: AUC; sedimentation velocity; TOG1-TOG2 or its mutants mixed with αβ-tubulin (∼5 molar equivalents of αβ-tubulin; seven concentrations of TOG1-TOG2 with 0.3 μM αβ-tubulin); two-site binding model; RB100 with 20 μM GTP, 20°C
[2] = biological target: wild-type (polymerization-competent) yeast αβ-tubulin (yeast) (UniProt P09733); experiment: AUC; sedimentation velocity; seven concentrations of TOG1 or TOG2 (44 nM-4.5 μM) titrated into 0.35 μM αβ-tubulin; 1:1 binding isotherm fitted; RB100 with 20 μM GTP, 20°C

- stoichiometry N (αβ-tubulins per TOG1-TOG2) [1]: 2
Substance: TOG1-TOG2(1-560) of Stu2p (from UniProt P46675 1-560) (domain or fragment)

- stoichiometry N (αβ-tubulin per TOG1-TOG2) [1]: 1
Substance: TOG1-TOG2 of Stu2p with the mutation R519A (from UniProt P46675 1-560) (domain or fragment)

- stoichiometry N (αβ-tubulin per TOG1-TOG2) [1]: 1
Substance: TOG1-TOG2 of Stu2p with the mutation printed as W314A (from UniProt P46675 1-560) (domain or fragment)

- Kd [2]: 70 nM
- stoichiometry N [2]: 1
Substance: TOG1 domain from Stu2p, TOG1(1-317) (from UniProt P46675 1-317) (domain or fragment)

Source: article PMC4145800
